In patent US20190194280A1:

Target: Serum samples collected at week 16 from patients immunized with UBI AD vaccine (UB-311)
Assay: comp. ELISA, serum P208

Row | Binder | IC50-based peak height
1 | AEFRHDSGYE [Aβ2-11 or APP 770 (A673-E682)] | 0
2 | VHHQKLVFFA [Aβ12-21 or APP 770 (V683-A692)] | 0
3 | HHQKLVFFAE [Aβ13-22 or APP 770 (H684-E693)] | 0
4 | HQKLVFFAED [Aβ14-23 or APP 770 (H685-D694)] | 0

Target: Serum samples collected at week 16 from patients immunized with UBI AD vaccine (UB-311)
Assay: comp. ELISA, serum P204

Row | Binder | IC50-based peak height
5 | AEFRHDSGYE [Aβ2-11 or APP 770 (A673-E682)] | 0
6 | VHHQKLVFFA [Aβ12-21 or APP 770 (V683-A692)] | 0
7 | HHQKLVFFAE [Aβ13-22 or APP 770 (H684-E693)] | 0
8 | HQKLVFFAED [Aβ14-23 or APP 770 (H685-D694)] | 0

Target: Serum samples collected at week 16 from patients immunized with UBI AD vaccine (UB-311)
Assay: comp. ELISA, serum P102

Row | Binder | IC50-based peak height
9 | AEFRHDSGYE [Aβ2-11 or APP 770 (A673-E682)] | 0
10 | VHHQKLVFFA [Aβ12-21 or APP 770 (V683-A692)] | 0
11 | HHQKLVFFAE [Aβ13-22 or APP 770 (H684-E693)] | 0
12 | HQKLVFFAED [Aβ14-23 or APP 770 (H685-D694)] | 0

Target: Serum samples collected at week 16 from patients immunized with UBI AD vaccine (UB-311)
Assay: comp. ELISA, serum P205

Row | Binder | IC50-based peak height
13 | AEFRHDSGYE [Aβ2-11 or APP 770 (A673-E682)] | 0
14 | VHHQKLVFFA [Aβ12-21 or APP 770 (V683-A692)] | 0
15 | HHQKLVFFAE [Aβ13-22 or APP 770 (H684-E693)] | 0
16 | HQKLVFFAED [Aβ14-23 or APP 770 (H685-D694)] | 0

Target: Serum samples collected at week 16 from patients immunized with UBI AD vaccine (UB-311)
Assay: comp. ELISA, serum P101

Row | Binder | IC50-based peak height
17 | AEFRHDSGYE [Aβ2-11 or APP 770 (A673-E682)] | 2
18 | VHHQKLVFFA [Aβ12-21 or APP 770 (V683-A692)] | 0
19 | HHQKLVFFAE [Aβ13-22 or APP 770 (H684-E693)] | 0
20 | HQKLVFFAED [Aβ14-23 or APP 770 (H685-D694)] | 0

Target: Serum samples collected at week 16 from patients immunized with UBI AD vaccine (UB-311)
Assay: comp. ELISA, serum P105

Row | Binder | IC50-based peak height
21 | AEFRHDSGYE [Aβ2-11 or APP 770 (A673-E682)] | 0
22 | VHHQKLVFFA [Aβ12-21 or APP 770 (V683-A692)] | 0
23 | HHQKLVFFAE [Aβ13-22 or APP 770 (H684-E693)] | 0
24 | HQKLVFFAED [Aβ14-23 or APP 770 (H685-D694)] | 0

Target: Serum samples collected at week 16 from patients immunized with UBI AD vaccine (UB-311)
Assay: comp. ELISA, serum P109

Row | Binder | IC50-based peak height
25 | AEFRHDSGYE [Aβ2-11 or APP 770 (A673-E682)] | 0
26 | VHHQKLVFFA [Aβ12-21 or APP 770 (V683-A692)] | 0
27 | HHQKLVFFAE [Aβ13-22 or APP 770 (H684-E693)] | 0
28 | HQKLVFFAED [Aβ14-23 or APP 770 (H685-D694)] | 0

Target: Serum samples collected at week 16 from patients immunized with UBI AD vaccine (UB-311)
Assay: comp. ELISA, serum P209

Row | Binder | IC50-based peak height
29 | AEFRHDSGYE [Aβ2-11 or APP 770 (A673-E682)] | 0
30 | VHHQKLVFFA [Aβ12-21 or APP 770 (V683-A692)] | 0
31 | HHQKLVFFAE [Aβ13-22 or APP 770 (H684-E693)] | 0
32 | HQKLVFFAED [Aβ14-23 or APP 770 (H685-D694)] | 0

Target: Serum samples collected at week 16 from patients immunized with UBI AD vaccine (UB-311)
Assay: comp. ELISA, serum P202

Row | Binder | IC50-based peak height
33 | AEFRHDSGYE [Aβ2-11 or APP 770 (A673-E682)] | 0
34 | VHHQKLVFFA [Aβ12-21 or APP 770 (V683-A692)] | 0
35 | HHQKLVFFAE [Aβ13-22 or APP 770 (H684-E693)] | 0
36 | HQKLVFFAED [Aβ14-23 or APP 770 (H685-D694)] | 0

Target: Serum samples collected at week 16 from patients immunized with UBI AD vaccine (UB-311)
Assay: comp. ELISA, serum P210

Row | Binder | IC50-based peak height
37 | AEFRHDSGYE [Aβ2-11 or APP 770 (A673-E682)] | 0
38 | VHHQKLVFFA [Aβ12-21 or APP 770 (V683-A692)] | 0
39 | HHQKLVFFAE [Aβ13-22 or APP 770 (H684-E693)] | 0
40 | HQKLVFFAED [Aβ14-23 or APP 770 (H685-D694)] | 0

Target: Serum samples collected at week 16 from patients immunized with UBI AD vaccine (UB-311)
Assay: comp. ELISA, serum P107

Row | Binder | IC50-based peak height
41 | AEFRHDSGYE [Aβ2-11 or APP 770 (A673-E682)] | 0
42 | VHHQKLVFFA [Aβ12-21 or APP 770 (V683-A692)] | 0
43 | HHQKLVFFAE [Aβ13-22 or APP 770 (H684-E693)] | 0
44 | HQKLVFFAED [Aβ14-23 or APP 770 (H685-D694)] | 0

Target: Serum samples collected at week 16 from patients immunized with UBI AD vaccine (UB-311)
Assay: comp. ELISA, serum P108

Row | Binder | IC50-based peak height
45 | AEFRHDSGYE [Aβ2-11 or APP 770 (A673-E682)] | 0
46 | VHHQKLVFFA [Aβ12-21 or APP 770 (V683-A692)] | 0
47 | HHQKLVFFAE [Aβ13-22 or APP 770 (H684-E693)] | 0
48 | HQKLVFFAED [Aβ14-23 or APP 770 (H685-D694)] | 0

Target: Serum samples collected at week 16 from patients immunized with UBI AD vaccine (UB-311)
Assay: comp. ELISA, serum P106

Row | Binder | IC50-based peak height
49 | AEFRHDSGYE [Aβ2-11 or APP 770 (A673-E682)] | 0
50 | VHHQKLVFFA [Aβ12-21 or APP 770 (V683-A692)] | 0
51 | HHQKLVFFAE [Aβ13-22 or APP 770 (H684-E693)] | 0
52 | HQKLVFFAED [Aβ14-23 or APP 770 (H685-D694)] | 0

Target: Serum samples collected at week 16 from patients immunized with UBI AD vaccine (UB-311)
Assay: comp. ELISA, serum P206

Row | Binder | IC50-based peak height
53 | AEFRHDSGYE [Aβ2-11 or APP 770 (A673-E682)] | 0
54 | VHHQKLVFFA [Aβ12-21 or APP 770 (V683-A692)] | 0
55 | HHQKLVFFAE [Aβ13-22 or APP 770 (H684-E693)] | 0
56 | HQKLVFFAED [Aβ14-23 or APP 770 (H685-D694)] | 0

Target: Serum samples collected at week 16 from patients immunized with UBI AD vaccine (UB-311)
Assay: comp. ELISA, serum P103

Row | Binder | IC50-based peak height
57 | AEFRHDSGYE [Aβ2-11 or APP 770 (A673-E682)] | 0
58 | VHHQKLVFFA [Aβ12-21 or APP 770 (V683-A692)] | 0
59 | HHQKLVFFAE [Aβ13-22 or APP 770 (H684-E693)] | 0
60 | HQKLVFFAED [Aβ14-23 or APP 770 (H685-D694)] | 0

Target: Serum samples collected at week 16 from patients immunized with UBI AD vaccine (UB-311)
Assay: comp. ELISA, serum P104

Row | Binder | IC50-based peak height
61 | AEFRHDSGYE [Aβ2-11 or APP 770 (A673-E682)] | 0
62 | VHHQKLVFFA [Aβ12-21 or APP 770 (V683-A692)] | 0
63 | HHQKLVFFAE [Aβ13-22 or APP 770 (H684-E693)] | 0
64 | HQKLVFFAED [Aβ14-23 or APP 770 (H685-D694)] | 0

Target: Serum samples collected at week 16 from patients immunized with UBI AD vaccine (UB-311)
Assay: comp. ELISA, serum P207

Row | Binder | IC50-based peak height
65 | AEFRHDSGYE [Aβ2-11 or APP 770 (A673-E682)] | 0
66 | VHHQKLVFFA [Aβ12-21 or APP 770 (V683-A692)] | 27
67 | HHQKLVFFAE [Aβ13-22 or APP 770 (H684-E693)] | 0
68 | HQKLVFFAED [Aβ14-23 or APP 770 (H685-D694)] | 0

Target: Serum samples collected at week 16 from patients immunized with UBI AD vaccine (UB-311)
Assay: comp. ELISA, serum P201

Row | Binder | IC50-based peak height
69 | AEFRHDSGYE [Aβ2-11 or APP 770 (A673-E682)] | 3
70 | VHHQKLVFFA [Aβ12-21 or APP 770 (V683-A692)] | 0
71 | HHQKLVFFAE [Aβ13-22 or APP 770 (H684-E693)] | 0
72 | HQKLVFFAED [Aβ14-23 or APP 770 (H685-D694)] | 0

Target: Immune sera of baboons immunized with UBI AD vaccine
Assay: competitive inhibition ELISA

Row | Binder | % inhibition at 0 µg/mL [%] | % inhibition at 0.25 µg/mL [%] | % inhibition at 0.5 µg/mL [%] | % inhibition at 1 µg/mL [%] | % inhibition at 2 µg/mL [%] | % inhibition at 8 µg/mL [%] | % inhibition at 32 µg/mL [%]
73 | AEFRHDSGYE [Aβ2-11 or APP 770 (A673-E682)] | 0 | 3 | 0 | 0 | 0 | 6 | 19

Target: Serum samples collected at week 16 from patients immunized with UBI AD vaccine (UB-311)
Assay: comp. ELISA, serum P203

Row | Binder | IC50-based peak height
74 | AEFRHDSGYE [Aβ2-11 or APP 770 (A673-E682)] | 0
75 | VHHQKLVFFA [Aβ12-21 or APP 770 (V683-A692)] | 0
76 | HHQKLVFFAE [Aβ13-22 or APP 770 (H684-E693)] | 0
77 | HQKLVFFAED [Aβ14-23 or APP 770 (H685-D694)] | 0
